Entries after “also recorded” stand apart in the source; their conditions may differ. Values belong to the molecule of their own block, whether it stands above or below them.
What was measured:
8988T and U2OS cells = assay: chelation assay, ferritin degradation by FTH1 immunoblot; type: cell-based, human; settings: FAC loading then chelators (DFO, BPS, DFP); FIG. 3(a)-(b), FIG. 19
Description: Chelation assays were performed similarly to those previously described with slight modifications [Asano et al., supra]. Briefly, U2OS and 8988T cells stably expressing shRNAs as described above (shGFP, shNCOA4-1, shNCOA4-2, selected with puromycin) were plated (2×10^5 cells/well) and cultured for 24 hours in FAC (36 μM or 180 μM). Cells were washed three times with PBS and subjected to iron chelation with the described chelators minus or plus lysosomal protease inhibitors (E-64d and PepstatinA) or the proteasomal inhibitor, Bortezomib. Cells were harvested at the indicated time points, washed with PBS, and lysed in 50 mM Tris-HCl (pH 7.4), 150 mM NaCl, 1% Nonidet P40, 0.1% SDS, 2 mM EDTA, 2 mM DTT, protease inhibitors and analyzed by 4-20% gradient SDS-PAGE followed by immunoblotting with the indicated antibodies. Experiments were performed at a minimum in biological triplicate. Quantitation of Western blots was performed using ImageJ [Schneider, C. A., et al. Nature Methods 9, 671-675 (2012)]. Cells were treated similarly for immunofluorescence experiments (including IMR90 and HPDE cells). Cells plated on glass coverslips were treated as described and fixed with 4% paraformaldehyde prior to immunofluorescence using anti-ferritin and anti-LAMP2. Data were collected as described above.

8988T cells = assay: NCOA4 protein levels while blocking autophagic flux (immunoblot); type: cell-based, human; settings: CQ or BAF 8 hours, FIG. 2(c)
PANC1 cells = assay: autophagosome formation, fluorescence microscopy of cells expressing GFP-MAP1LC3B; type: cell-based, human; settings: Wortmannin 200 nM 1 h, chloroquine 25 μM 4 h, FIG. 13(b)
NCOA4(aa 383-522)-GST = target: T1, NCOA4(aa 383-522)-GST (Homo sapiens, UniProt Q13772); assay: GST pull-down assay of WT and point mutant FTH1 using NCOA4(aa 383-522)-GST; type: binding; settings: 40 μg FTH1, InstantBlue stain; FIGS. 23A-D
T1 construct: NCOA4(aa 383-522)-GST or GST alone was incubated with; made in house; host or cells: E. coli BL21 (DE3)
T1 sequence (Q13772 383-522): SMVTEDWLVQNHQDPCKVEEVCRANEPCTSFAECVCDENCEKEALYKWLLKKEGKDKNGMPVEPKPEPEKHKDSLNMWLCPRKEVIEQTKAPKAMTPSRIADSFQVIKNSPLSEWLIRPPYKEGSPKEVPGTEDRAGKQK

[1] = target: T2, apo-ferritin purified from equine spleen (Equus caballus, UniProt Q8MIP0); assay: GST pull-down assay of ferritin using GST-NCOA4 fragments; type: binding; settings: anti-FTH1 immunoblot
T2 construct: apo-ferritin purified from equine spleen; purchased Sigma F4503; host or cells: equine spleen
T2 sequence (Q8MIP0 whole entry, the tested form may be a part): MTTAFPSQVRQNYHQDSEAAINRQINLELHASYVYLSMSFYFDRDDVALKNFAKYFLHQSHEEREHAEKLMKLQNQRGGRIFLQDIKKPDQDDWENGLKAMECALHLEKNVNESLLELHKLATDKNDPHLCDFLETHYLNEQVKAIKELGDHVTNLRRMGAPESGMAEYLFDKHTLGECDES
T2 sequence (P02791 2-175 partner limits assumed): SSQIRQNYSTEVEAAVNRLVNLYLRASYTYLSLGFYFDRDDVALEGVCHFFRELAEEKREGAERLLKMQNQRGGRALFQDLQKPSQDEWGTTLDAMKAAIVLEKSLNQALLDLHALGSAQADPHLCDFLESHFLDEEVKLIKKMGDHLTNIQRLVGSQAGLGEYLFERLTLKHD
Description: GST-tagged NCOA4 constructs were also made to probe the interactions of C-terminal portions of NCOA4 with ferritin. NCOA4-truncation constructs were produced using Gateway cloning (Invitrogen, Life Technologies, catalog #11789-013 and 11791-019) into a pDEST60 N-terminal GST fusion plasmid (GST-NCOA4) from EMD Millipore (Gateway Nova pET-60-DEST, product #71851-3) and transformed in E. coli BL21 (DE3) cells (New England Biosciences, C2527I).
NCOA4 truncation constructs were designed based on NCBI reference sequence: NP_001138735.1 (SEQ ID NO: 4). In particular, fragments of SEQ ID NO: 4 consisting of amino acids (aa) 1-245, aa 235-614, aa 235-560, aa 235-401, aa 383-560, aa 545-614, aa 383-522, aa 510-560, aa 383-436, aa 436-485, aa 475-522, aa 475-500, aa 480-500, aa 480-504, aa 485-509, aa 490-514, aa 495-522 were designed. Protein expression in the DE3 cells was induced with 1 mM isopropyl-beta-D-thiogalactopyranoside (IPTG) (Sigma, I6758-10 G) for 3 hours at 37° C. Cells were collected by centrifugation, re-suspended in 25 mM Tris-HCl (pH 7.4), 10% (w/v) sucrose and lysed with a single freeze-thaw cycle followed by sonication. After centrifugation, a GST pull-down assay was performed.
In the GST pull-down assay, lysates were incubated with 10 μl of a 50% (v/v) slurry of glutathione Sepharose 4B beads (GE Healthcare Lifesciences, 17-0756-01) for 30 minutes at 4° C. Beads were washed thoroughly with 150 mM NaCl, 20 mM Tris (pH 7.4), 2 mM dithiothreitol (DTT), 0.5% (w/v) Nonidet P-40, leaving 50-100 μg of GST-fusion protein bound to the beads. Beads were then mixed with 0.5-2 μg of apo-ferritin purified from equine spleen (Sigma F4503) or recombinant human FTH1 or FTL produced in Rosetta E. coli (EMD Millipore, 70953-3). The assay mix was incubated for 2 hours at 4° C., and beads were washed four times with 1 ml wash buffer. Proteins were eluted with SDS sample buffer and analyzed by 4-20% gradient SDS-PAGE and immunoblotting with anti-FTH1 antibody (as above) or anti-FLAG antibody (Sigma, F1804-200 UG). Pounceau stain was used to visualize GST-NCOA4 bands. (Pounceau, Sigma, P7170-1 L, protocol as per product manual).

FTH1 = assay: IVT-based interaction experiment with His-GST-HA tagged NCOA4 constructs and GST pull-down; type: binding; settings: equal load of fragments; FIG. 9
[2] = target: T3, HERC2-FLAG fragment (F3, HERC2 amino acids 1700-2700) (Homo sapiens, UniProt O95714); assay: GST pull-down assay of HERC2-FLAG Fragment 3 using GST-NCOA4 fragments; type: binding; settings: 293T lysate expressing HERC2-FLAG F3, anti-FLAG immunoblot; FIG. 12
T3 construct: HERC2-FLAG fragment (F3, HERC2 amino acids 1700-2700) was produced as described in Bekker-Jensen et al; expressed in transfected cells; host or cells: 293T cells (transient transfection, lysate used)
T3 sequence (O95714 1700-2700): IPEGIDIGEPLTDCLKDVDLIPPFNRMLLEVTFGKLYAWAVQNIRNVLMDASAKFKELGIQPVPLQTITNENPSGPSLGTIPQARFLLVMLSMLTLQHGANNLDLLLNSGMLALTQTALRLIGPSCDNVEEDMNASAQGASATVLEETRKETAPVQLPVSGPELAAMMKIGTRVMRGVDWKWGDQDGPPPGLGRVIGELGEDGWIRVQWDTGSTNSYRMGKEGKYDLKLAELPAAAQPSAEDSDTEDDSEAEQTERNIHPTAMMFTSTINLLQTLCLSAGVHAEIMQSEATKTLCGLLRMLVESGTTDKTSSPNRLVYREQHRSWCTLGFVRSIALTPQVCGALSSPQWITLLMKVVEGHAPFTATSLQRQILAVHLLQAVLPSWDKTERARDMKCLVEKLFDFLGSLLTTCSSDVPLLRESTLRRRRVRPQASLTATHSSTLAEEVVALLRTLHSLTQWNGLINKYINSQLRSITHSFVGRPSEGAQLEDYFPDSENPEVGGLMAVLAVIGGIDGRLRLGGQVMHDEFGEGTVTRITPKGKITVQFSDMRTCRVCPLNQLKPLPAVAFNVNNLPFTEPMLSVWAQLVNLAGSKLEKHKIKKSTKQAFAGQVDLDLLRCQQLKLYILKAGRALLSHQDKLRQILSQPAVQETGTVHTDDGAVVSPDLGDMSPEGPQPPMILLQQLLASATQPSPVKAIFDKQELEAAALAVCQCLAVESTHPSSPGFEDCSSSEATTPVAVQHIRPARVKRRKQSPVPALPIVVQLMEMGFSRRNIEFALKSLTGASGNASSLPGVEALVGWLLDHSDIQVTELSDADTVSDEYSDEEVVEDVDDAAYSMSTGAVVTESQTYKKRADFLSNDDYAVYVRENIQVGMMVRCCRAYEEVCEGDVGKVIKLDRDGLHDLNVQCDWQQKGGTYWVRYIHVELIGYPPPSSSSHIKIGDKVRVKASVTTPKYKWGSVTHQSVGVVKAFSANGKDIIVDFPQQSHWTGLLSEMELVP
Description: To map the interaction of NCOA-4 with HERC2, the GST-NCOA4 truncation constructs described above were also tested in a GST pull-down assay with HERC2-FLAG expressing 293T cell line. HERC2-FLAG fragment (F3, HERC2 amino acids 1700-2700) was produced as described in Bekker-Jensen et al., Nature Cell Biology (2010) 12; 80-86. The HERC2-FLAG F3 was transiently transfected into 293T cells using standard transfection procedures using PEI (Polysciences, #23966-2).
Lysates were obtained, as above, and incubated with 10 μl of a 50% (v/v) slurry of glutathione Sepharose 4B beads for 30 minutes at 4° C. Beads were washed thoroughly with 150 mM NaCl, 20 mM Tris (pH 7.4), 2 mM DTT, 0.5% (w/v) Nonidet P-40, leaving 50-100 μg of GST-fusion protein bound to the beads. Beads were then mixed with 300 μg of lysate from a HERC2-FLAG expressing 293T cell line, as above. The assay mix was incubated for 2 hours at 4° C., and beads were washed four times with 1 ml wash buffer. Proteins were eluted with SDS sample buffer and analyzed by 4-20% gradient SDS-PAGE and immunoblotting with anti-HERC2 antibody or anti-FLAG antibody, as above. Coomassie stain was used to visualize GST-NCOA4 bands as above.

Molecule: 5′ CCCAGGAAGTATTACTTAATT 3′ (expressed or natural sequence) [shNCOA4-1]
ferritin degradation in response to iron chelation (8988T and U2OS cells): rescued ferritin degradation

Molecule: 5′ GCTGGCAAACAGAAGTTTAAA 3′ (expressed or natural sequence) [shNCOA4-2]
ferritin degradation in response to iron chelation (8988T and U2OS cells): rescued ferritin degradation

Molecule: CO/C1=C\C(C)=C\[C@@H](C)[C@@H](O)[C@@H](C)C/C(C)=C/C=C/[C@H](OC)[C@@H]([C@@H](C)[C@@H](O)[C@H](C)[C@@]2(O)C[C@@H](O)[C@H](C)[C@@H](C(C)C)O2)OC1=O [Bafilomycin A1 (BAF), Bafilomycin A1]
NCOA4 protein levels (8988T cells): markedly increased

Molecule: CCN(CC)CCCC(C)Nc1ccnc2cc(Cl)ccc12 (centres unmarked) [chloroquine, Chloroquine]
effect on autophagosomes (PANC1 cells): caused accumulation of autophagosomes
NCOA4 protein levels (8988T cells): markedly increased

Molecule: FTH1 R23A point mutant: recombinant human ferritin heavy chain with R23A point mutation, produced in E. coli
binding of FTH1 (WT or point mutant) to NCOA4(383-522)-GST (NCOA4(aa 383-522)-GST): bound only very weakly

B1: aa 383-560: fragment of NCOA4 SEQ ID NO: 4 (protein)
chain: SMVTEDWLVQNHQDPCKVEEVCRANEPCTSFAECVCDENCEKEALYKWLLKKEGKDKNGMPVEPKPEPEKHKDSLNMWLCPRKEVIEQTKAPKAMTPSRIADSFQVIKNSPLSEWLIRPPYKEGSPKEVPGTEDRAGKQKFKSPMNTSWCSFNTADWVLPGKKMGNLSQLSSGEDKWL
modifications: Homo sapien
binding of GST-NCOA4 fragment to ferritin ([1]; FIGS. 7, 8, 11): bound to ferritin
binding of GST-NCOA4 fragment to HERC2-FLAG [2]: binds to HERC2 fragment

B2: aa 383-522: fragment of NCOA4 SEQ ID NO: 4 (protein)
chain: T1 sequence (Q13772 383-522)
modifications: GST tag; Homo sapien
binding of GST-NCOA4 fragment to ferritin ([1]; FIGS. 7, 8, 11): bind to ferritin
pull-down of FTH1 by IVT GST-NCOA4 fragment (FTH1): equally pulled down (bound to) FTH1
binding of GST-NCOA4 fragment to HERC2-FLAG [2]: bound to HERC2-FLAG

B3: aa 235-560: fragment of NCOA4 SEQ ID NO: 4 (protein)
chain: ENSQTSSRACNFFNNVGGNLKGLENWLLKSEKSSYQKCNSHSTTSSFSIEMEKVGDQELPDQDEMDLSDWLVTPQESHKLRKPENGSRETSEKFKLLFQSYNVNDWLVKTDSCTNCQGNQPKGVEIENLGNLKCLNDHLEAKKPLSTPSMVTEDWLVQNHQDPCKVEEVCRANEPCTSFAECVCDENCEKEALYKWLLKKEGKDKNGMPVEPKPEPEKHKDSLNMWLCPRKEVIEQTKAPKAMTPSRIADSFQVIKNSPLSEWLIRPPYKEGSPKEVPGTEDRAGKQKFKSPMNTSWCSFNTADWVLPGKKMGNLSQLSSGEDKWL
modifications: Homo sapien
binding of GST-NCOA4 fragment to ferritin ([1]; FIGS. 7, 8, 11): bound to ferritin

Further lines, with some results ahead:

binding of GST-NCOA4 fragment to ferritin ([1]; FIGS. 7, 8, 11, listed as amino acids 475-522): bind to ferritin
Molecule: KAMTPSRIADSFQVIKNSPLSEWLIRPPYKEGSPKEVPGTEDRAGKQK (Homo sapien) [aa 475-522]
binding of GST-NCOA4 fragment to ferritin ([1]; FIGS. 7, 8, 11): interacted with ferritin; also recorded: bound to ferritin
pull-down of FTH1 by IVT GST-NCOA4 fragment (FTH1): equally pulled down (bound to) FTH1

binding of GST-NCOA4 fragment to ferritin ([1]; FIGS. 7, 8, 11): bound to ferritin
Molecule: SFQVIKNSPLSEWLIRPPYKEGSPK (Homo sapien) [aa 485-509]

binding of GST-NCOA4 fragment to HERC2-FLAG [2]: bound to HERC2-FLAG
Molecule: SMVTEDWLVQNHQDPCKVEEVCRANEPCTSFAECVCDENCEKEALYKWLLKKEG (Homo sapien) [aa 383-436]

— patent US10350264B2, “Compositions and methods for modulating NCOA4-mediated autophagic targeting of ferritin” (Dana-Farber Cancer Institute, Inc., priority 2014, dated 2019)
